“Also recorded” adds a separate entry of the source.
Legend:
[1] = biological target: T1, recombinant fibronectin 11A12 domain (EDA) (Homo sapiens, UniProt P02751); assay: Biacore surface plasmon resonance binding analysis; details: SPR, BIAcore X100, CM5 chip coated with recombinant fibronectin 11A12 domain
T1 construct: recombinant fibronectin 11A12 domain
Experimental: Binding affinity was determined by surface plasmon resonance using a BIAcore X100 instrument using a CM5 chip coated with recombinant fibronectin 11A12 domain. Samples were injected as serial-dilution, using a concentration range from […] to 125 nM.

[2] = Melting temperature (Protein Thermal Shift kit); type: physicochemical
Experimental: The melting temperature of the different mIL9 conjugates was determined using a StepOne real-Time PCR system in combination with the Protein Thermal Shift kit.

[3] = Storage stability (OD280, SEC, SDS-PAGE); type: physicochemical
Experimental: Storage stability of F8(scFv)-mIL9-F8(scFv) was assessed by size exclusion chromatography profile and analytical SDS-PAGE analysis of the protein after: a) incubation at 37° C. for 3, 5 and 7 days, b) incubation at 4° C. for 7 days and c) a series of 3 freeze and thaw cycles.

[4] = test system: Monocrotaline (MCT) induced pulmonary hypertension (PH) in C57BL/6 mice; assay: Right heart catheterization in MCT induced PH mouse model (Example 3); type: in vivo
Text: (§1) Pulmonary Hypertension (PH) was induced in C57BL/6 mice (bodyweight: 25-30 g). The animals were obtained from ZET facility (Zentale Experimentelle Tierhaltung) of the University Hospital Jena (UKJ, Jena, Germany). Prior to PH induction, mice were allowed to acclimatize for at least 7 days with ad libitum access to food and water as well as controlled light/dark cycles. As shown in the overview of the experimental design and treatment schedule (FIG. 6), the following experimental groups were investigated: • sham induced controls (n=6) • MCT induced PH (n=8) • MCT induced PH+MACI (n=7) • MCT induced PH+F8(scFv)-mIL9-F8(scFv) (also named F8-IL9) (n=6) • MCT induced PH+KSF(scFv)-mIL9-KSF(scFv) (also named KSF-IL9) (n=6)
For PH induction, the Monocrotaline (MCT) method was used.
The sham induced controls were injected with 30 μl NaCl not containing MCT at day 1 (single dose; intraperitoneally, i.p.). […] The other 4 experimental groups were injected with MCT to induce PH (single dose; intraperitoneally, i.p.; 60 mg/kg body weight; volume 30 μl). Animals in the MCT induced PH+MACI group received the drug (Macitentan) from day 14 to day 28 (once daily; per os; 15 mg/kg body weight). […]
(§2) Statistical analyses were performed using IBM SPSS statistical software, version 25.0 (IBM SPSS Statistics for Windows. Armonk, N.Y., USA). Data are expressed as mean±standard deviation. […]

[5] = test system: Monocrotaline (MCT) induced pulmonary hypertension (PH) in C57BL/6 mice; assay: Echocardiographic assessment in MCT induced PH mouse model (Example 3); type: in vivo; details: in contrast to untargeted KSF(scFv)-mIL9-KSF(scFv)
Text: as §1
For PH induction, the Monocrotaline (MCT) method was used. […]
(§3) Echocardiographic assessment was performed on day 28 (FIG. 6) using the Vevo 770 Rodent-Ultrasound-System, Visual Sonic, Canada, 17 MHz probe RMV176. […] Body temperature and respiratory rate were continuously monitored. All surrogate parameters of right ventricular (RV) morphology and function were assessed, among others, RV basal and medial diameters (in mm), RV length (in mm), and RV fractional area change (FAC, in %).
as §2

[6] = test system: Monocrotaline (MCT) induced pulmonary hypertension (PH) in C57BL/6 mice; assay: Right heart catheterization in MCT induced PH mouse model (Example 4); type: in vivo; details: in contrast to KSF containing control immunocytokines
Text: To induce Pulmonary Hypertension (PH), C57BL/6 mice (bodyweight: 25-30 g) were used. The animals were obtained from ZET facility (Zentrale Experimentelle Tierhaltung) of the University Hospital Jena (UKJ, Jena, Germany). Prior to PH induction, mice were allowed to acclimatize for at least 7 days with ad libitum access to food and water as well as controlled light/dark cycles. In this set of experiments, 50 animals were investigated divided into the following 7 experimental groups: • sham induced controls (n=10) • MCT induced PH (n=8) • MCT induced PH+MACI (n=8) • MCT induced PH+F8mIL9F8 in CrAb format (n=6) • MCT induced PH+KSFmIL9KSF in CrAb format (n=6) • MCT induced PH+F8_(IgG-HC4)-mIL9 (n=6) • MCT induced PH+KSF_(IgG-HC4)-mIL9 (n=6)
For PH induction, the Monocrotaline (MCT, Carl Roth, Germany) method was used.
The sham induced controls were injected with 30 μl NaCl not containing MCT at day 1 (single dose; intraperitoneally, i.p.). […] The other 6 experimental groups were injected with MCT (single dose; intraperitoneally, i.p.; 60 mg/kg body weight; volume 30 μl). Animals in the MCT induced PH+MACI group received the drug (Macitentan, Actelion Pharmaceuticals Ltd.) from day 14 to day 28 (once daily; per os; 15 mg/kg body weight).
Animals in the MCT induced PH+F8mIL9F8 in CrAb format group received F8mIL9F8 3 times on days 14, 16 and 18 (intravenously, i.v.; 200 μg/injection; volume 154 μl). Animals in the MCT induced PH+KSFmIL9KSF in CrAb format group received KSFmIL9KSF 3 times on days 14, 16 and 18 (intravenously, i.v.; 198 μg/injection; volume 182 μl).
Animals in the MCT induced PH+F8_(IgG-HC4)-mIL9 group received F8_(IgG-HC4)-mIL9 3 times on days 14, 16 and 18 (intravenously, i.v.; 261 μg/injection; volume 137 μl). Animals in the MCT induced PH+KSF_(IgG-HC4)-mIL9 group received KSF_IgG-HC4mIL9 3 times on days 14, 16 and 18 (intravenously, i.v.; 258 μg/injection; volume 161 μl).
On day 28 after MCT injection, mice of all experimental groups were deeply anesthetized with a single dose of 100 mg/kg body weight ketamine and 10 mg/kg body weight Xylazin in approximately 60 μl each administered i.p.
Right heart catheterization using a 1.4 F micro conductance pressure-volume catheter (Model SPR-839; Millar Instruments Inc; PowerLab system, ADInstruments Ltd., Oxford, UK) was performed via the right vena jugularis interna to measure the systolic right ventricular pressure and thereby verify the success of the experimental setting. Mice were then sacrificed in deep anesthesia and analgesia to carry out cardiac blood collection after thoracotomy and to harvest the organs.
as §2

[7] = test system: Monocrotaline (MCT) induced pulmonary hypertension (PH) in C57BL/6 mice; assay: Echocardiographic assessment in MCT induced PH mouse model (Example 4); type: in vivo; details: in contrast to KSF containing control immunocytokines
Experimental: To induce Pulmonary Hypertension (PH), C57BL/6 mice (bodyweight: 25-30 g) were used. The animals were obtained from ZET facility (Zentrale Experimentelle Tierhaltung) of the University Hospital Jena (UKJ, Jena, Germany). Prior to PH induction, mice were allowed to acclimatize for at least 7 days with ad libitum access to food and water as well as controlled light/dark cycles. […]
as §3, with “28” for “28 (FIG. 6)”, “tricuspid annular plane systolic excursion (TAPSE, in mm), right atrial” for “and RV fractional”, “(RA area,” for “change (FAC,”, “mm^2) or main pulmonary artery diameter (MPA, in mm).” for “%).”
as §2

T1 sequence (P02751 1629-1905 limits assumed): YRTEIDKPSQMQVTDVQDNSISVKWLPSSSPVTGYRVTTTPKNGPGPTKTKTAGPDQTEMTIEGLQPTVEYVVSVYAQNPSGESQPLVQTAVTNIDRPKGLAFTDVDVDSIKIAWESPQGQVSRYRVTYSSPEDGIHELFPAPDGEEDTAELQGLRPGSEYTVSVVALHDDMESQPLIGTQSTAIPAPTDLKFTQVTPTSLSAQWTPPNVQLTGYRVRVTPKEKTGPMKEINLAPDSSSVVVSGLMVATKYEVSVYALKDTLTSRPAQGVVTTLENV

B1: F8(scFv)-mIL9-F8(scFv): murine IL9 conjugated at N- and C-terminus to an F8 scFv via 10 amino acid linker, CrAb format; SEQ ID NO: 17 (protein)
chain: EVQLLESGGGLVQPGGSLRLSCAASGFTFSLFTMSWVRQAPGKGLEWVSAISGSGGSTYYADSVKGRFTISRDNSKNTLYLQMNSLRAEDTAVYYCAKSTHLYLFDYWGQGTLVTVSSGGGGSGGGGSGGGGEIVLTQSPGTLSLSPGERATLSCRASQSVSMPFLAWYQQKPGQAPRLLIYGASSRATGIPDRFSGSGSGTDFTLTISRLEPEDFAVYYCQQMRGRPPTFGQGTKVEIKSGGSGSGGGGQRCSTTWGIRDTNYLIENLKDDPPSKCSCSGNVTSCLCLSVPTDDCTTPCYREGLLQLTNATQKSRLLPVFHRVKRIVEVLKNITCPSFSCEKPCNQTMAGNTLSFLKSLLGTFQKTEMQRQKSRPSGGSGSGGGGEVQLLESGGGLVQPGGSLRLSCAASGFTFSLFTMSWVRQAPGKGLEWVSAISGSGGSTYYADSVKGRFTISRDNSKNTLYLQMNSLRAEDTAVYYCAKSTHLYLFDYWGQGTLVTVSSGGGGSGGGGSGGGGEIVLTQSPGTLSLSPGERATLSCRASQSVSMPFLAWYQQKPGQAPRLLIYGASSRATGIPDRFSGSGSGTDFTLTISRLEPEDFAVYYCQQMRGRPPTFGQGTKVEIK
modifications: F8(scFv)-mIL9-F8(scFv) (“CrAb” format)
In the case of B1, the “apparent KD” value [1] is reported as “in the nM range”, the “increase in melting temperature compared with diabody formats F8(db)-mIL9 and mIL9-F8(db)” value [2] is reported as ~3 °C and the “stability to freeze and thawing (protein concentration, SEC profile, SDS-PAGE)” value ([3]; 3 cycles of freeze and thawing) is reported as “no loss of concentration, no changes in the size exclusion profile or SDS-PAGE analysis; also recorded: no loss of concentration”. For the same molecule, the “thermal stability over time (protein concentration, SEC profile, SDS-PAGE)” value ([3]; incubated at 4° for up to 7 days) was “no loss of concentration, no changes in the size exclusion profile or SDS-PAGE analysis; also recorded: no loss of concentration”, the “thermal stability over time (protein concentration, SEC profile, SDS-PAGE)” value ([3]; incubated at 37° C. for up to 7 days) was “no loss of concentration, no changes in the size exclusion profile or SDS-PAGE analysis; also recorded: no loss of concentration” and the “treatment effects relative to MACI (result in words)” value ([4]; MACI 15 mg/kg per os once daily day 14 to 28) was “at least comparable”. For the same molecule, the “pressure values in the right ventricle (result in words)” value ([4]; in contrast to untargeted KSF(scFv)-mIL9-KSF(scFv), 200 μg/injection i.v. days 14, 16, 18) was “significantly reduce”, the “echocardiographic signs of right ventricular load and dysfunction (result in words)” value [5] was “significantly improved the majority” and the “pressure values in the right ventricle, RVPsys (result in words)” value [6] was “significantly reduced”. For the same molecule, the “echocardiographic signs of right ventricular load and dysfunction (result in words)” value [7] was “significantly improved a variety”.

Reference: patent US20230285585A1, “TREATMENT OF PULMONARY HYPERTENSION” (PHILOGEN S.P.A., priority 2020, published 2023)
